Data as given in article PMC12974149.

Target: Rabbit skeletal actin, filamentous (F-actin) (rabbit) (UniProt P68135)
Experiment: fluorescence microscopy of purified drebrin on actin filaments

fraction of actin filaments heavily (>50%) decorated by drebrin: 16%
Substance: mouse drebrin isoform E (natural protein)
